# Measurements from patent publication US4446316A, “Dextran derivative of fibrinolysin” (Vsesojuzny Kardiologichesky Nauchny Tsentr, priority 1980, dated 1984).
# Entries after “also recorded” stand apart in the source; their conditions may differ.
# B1: Fibrinolysin derivative of the invention: fibrinolysin covalently bonded to dextran dialdehyde (molecular mass 20,000 to 110,000), reduced with sodium borohydride (conjugate, UniProt P00747 20-580; P00747 581-810, looked up)
# Plasmin heavy chain A: EPLDDYVNTQGASLFSVTKKQLGAGSIEECAAKCEEDEEFTCRAFQYHSKEQQCVIMAENRKSSIIIRMRDVVLFEKKVYLSECKTGNGKNYRGTMSKTKNGITCQKWSSTSPHRPRFSPATHPSEGLEENYCRNPDNDPQGPWCYTTDPEKRYDYCDILECEEECMHCSGENYDGKISKTMSGLECQAWDSQSPHAHGYIPSKFPNKNLKKNYCRNPDRELRPWCFTTDPNKRWELCDIPRCTTPPPSSGPTYQCLKGTGENYRGNVAVTVSGHTCQHWSAQTPHTHNRTPENFPCKNLDENYCRNPDGKRAPWCHTTNSQVRWEYCKIPSCDSSPVSTEQLAPTAPPELTPVVQDCYHGDGQSYRGTSSTTTTGKKCQSWSSMTPHRHQKTPENYPNAGLTMNYCRNPDADKGPWCFTTDPSVRWEYCNLKKCSGTEASVVAPPPVVLLPDVETPSEEDCMFGNGKGYRGKRATTVTGTPCQDWAAQEPHRHSIFTPETNPRAGLEKNYCRNPDGDVGGPWCYTTNPRKLYDYCDVPQCAAPSFDCGKPQVEPKKCPGR
# Plasmin light chain B: VVGGCVAHPHSWPWQVSLRTRFGMHFCGGTLISPEWVLTAAHCLEKSPRPSSYKVILGAHQEVNLEPHVQEIEVSRLFLEPTRKDIALLKLSSPAVITDKVIPACLPSPNYVVADRTECFITGWGETQGTFGAGLLKEAQLPVIENKVCNRYEFLNGRVQSTELCAGHLAGGTDSCQGDSGGPLVCFEKDKYILQGVTSWGLGCARPNKPGVYVRVSRFVTWIEGVMRNN
# modifications: Plasmin dextran dialdehyde conjugate, borohydride reduced
# notes: fibrinolysin covalently bonded to dextran dialdehyde (molecular mass 20,000 to 110,000), reduced with sodium borohydride
# B2: derivative of fibrinolysin with aldehyde-containing sephadex: fibrinolysin reacted with a modified aldehyde-containing sephadex in a phosphate buffer at 4° C. (conjugate, UniProt P00747 20-580; P00747 581-810, looked up)
# Plasmin heavy chain A: B1 Plasmin heavy chain A
# Plasmin light chain B: B1 Plasmin light chain B
# modifications: plasmin conjugated to aldehyde-containing Sephadex
# Key:
# [1] = test system: thromboses of a rabbit's jugular vein; assay: Thrombolytic activity on model of thrombosis of rabbit's jugular vein (lysis of thrombus); assay type: in vivo; details: rabbits
# Excerpt: (§1) The study of the specific (thrombolytic) effect of the polysaccharide fibrinolysin derivative according to the present invention has been studied on models of thromboses of a rabbit's jugular vein and a dog's femoral vein or artery. Thrombi of 1 to 2.5 cm size were formed in the above-mentioned animals which fully obliterated the cross-section of a blood vessel. The administration of the test preparation at the background of heparin was started one hour after the thrombus formation.
# (§2) On the basis of an expected prolonged fibrinolytic effect of the preparation according to the present invention, a test dose of the preparation ranging from 400 to 4,000 units per kg of the bodyweight is dissolved in a physiological solution, 20-30 ml for rabbits and 50-100 ml for dogs, and injected by means of a syringe in a jet-like manner intravenously over 20 minutes, not following the instruction on the use of fibrinolysin (intravenously by the dropwise method at a rate of 10-12 drops per minute).
# (§3) The dynamics of the thrombus formation and lysis was observed visually and by palpation during 6 hours of the experiment, after one, two and three days. The angiography and fluorometry were carried out prior to the beginning of the treatment and one day after the administration of the preparation.
# [2] = test system: white mice, rats, rabbits and dogs; assay: Toxicity, general findings in white mice, rats, rabbits and dogs; assay type: in vivo; details: for Death of animals: single i.v. dose exceeding the therapeutic dose by 4-5 times
# Excerpt: (§4) The toxicity of the fibrinolysin derivative according to the present invention was studied on white mice, rats, rabbits and dogs.
# Mice = assay: Toxicity upon intravenous injection in mice; assay type: in vivo, white mice; details: i.v.
# Excerpt: as §4
# (§5) Toxicity of the fibrinolysin derivative of the invention
# (§6) for animals of different species upon intravenous injection
# Rats = assay: Toxicity upon intravenous injection in rats; assay type: in vivo; details: i.v.
# Excerpt: as §4, §5, §6
# experimental thrombosis = assay: Duration of fibrinolytic effect and effective dose in experimental thrombosis; assay type: in vivo, rabbits, dogs
# Excerpt: as §1, §2, §3
# thrombin time = assay: Thrombin time in dogs with experimental thrombosis; assay type: in vivo, dog
# Excerpt: (§7) The prolonged effect of the fibrinolysin derivative according to the present invention has been studied in experiments on dogs in comparison with the effect of native fibrinolysin.
# Variation of thrombin time (in seconds) in dogs with expe-
# rimental thrombosis after administration of the fibrinolysin
# derivative according to the present invention and native
# [3] = Solubility and hygroscopicity of the preparation; assay type: physicochemical
# [4] = test system: euglobulin fraction of dog's plasma; assay: Lysis duration of the euglobulin fraction of dog's plasma with experimental thrombosis; assay type: in vivo
# Excerpt: as §7
# Variation of lysis duration (in minutes) of the euglobulin
# fraction of dog's plasma with experimental thrombosis upon
# administration of the fibrinolysin derivative according to
# the present invention and native fibrinolysin
# Rabbits = assay: Toxicity upon intravenous injection in rabbits; assay type: in vivo; details: i.v.
# Excerpt: as §4, §5, §6
# blood coagulation = assay: Blood coagulation and bleeding during therapy of experimental thrombosis; assay type: in vivo, rabbit; details: during treatment
# Excerpt: as §1, §2, §3
# [5] = test system: thromboses of a dog's femoral vein or artery; assay: Thrombolytic activity on model of thrombosis of dog's femoral vein (lysis of thrombus); assay type: in vivo; details: dogs, femoral vein, 600 units/kg i.v., n=3
# Excerpt: as §1, §2, §3
# Dogs = assay: Toxicity upon intravenous injection in dogs; assay type: in vivo; details: i.v.
# Excerpt: as §4, §5, §6
# [6] = prior-art product (Kardiologiya, 1977); cited from earlier work
# [7] = before administration (baseline)
molecule,measurement,setting,value
B1,Efficiency of the therapy (lysis of thrombus),"[1]; 400 units/kg i.v., n=7",full lysis
same,Efficiency of the therapy (lysis of thrombus),[1]; 600 units/kg i.v.,full lysis
same,Toxicity,"[2]; compared with native fibrinolysin / overall statement, listed as fibrinolysin derivative according to the present invention",low toxicity
same,Effect on the vessels,[2]; in the test doses,no injuring effect on the vessels
same,Macro- and microscopic changes in the inner organs,[2]; in the test doses,no macro- and microscopic changes in the inner organs
same,Effect on the central nervous system and blood pressure,[2]; in therapeutical doses,no effect on the central nervous system and blood pressure
same,Death of animals,[2]; listed as fibrinolysin derivative according to the present invention,does not result in death of animals
same,Death of animals,[2]; listed as fibrinolysin derivative of the present invention,does not result in their death
same,LD50,Mice,5000 un./kg
same,"Toxicity test result (dead/survived, not defined)",Mice; 2000 un/kg,0/6
same,"Toxicity test result (dead/survived, not defined)",Mice; 2500 un/kg,0/6
same,"Toxicity test result (dead/survived, not defined)",Mice; 5000 un/kg,2/4
same,"Toxicity test result (dead/survived, not defined)",Mice; 6250 un/kg,6/0
same,LD50,Rats,4586 un./kg
same,"Toxicity test result (dead/survived, not defined)",Rats; 2000 un/kg,0/6
same,"Toxicity test result (dead/survived, not defined)",Rats; 2500 un/kg,0/6
same,"Toxicity test result (dead/survived, not defined)",Rats; 3750 un/kg,2/4
same,"Toxicity test result (dead/survived, not defined)",Rats; 5000 un/kg,3/3
same,"Toxicity test result (dead/survived, not defined)",Rats; 6250 un/kg,6/0
same,Normalization of changes in the blood clotting system,experimental thrombosis; after administration,on the second day
same,Duration of the fibrinolytic effect,"experimental thrombosis; after administration, listed as fibrinolysin derivative according to the present invention",up to two days after administration; also recorded: observed also on the second day
same,Minimal effective (therapeutical) dose,experimental thrombosis; single intravenous jet-like infusion,400 units/kg
same,Prolongation of the effect as compared to native fibrinolysin,experimental thrombosis; vs native fibrinolysin,2-3 times
same,Thrombin time,thrombin time; after 2 hours,90 s
same,Thrombin time,thrombin time; after 1 day,92 s
same,Thrombin time,thrombin time; after 2 days,210 s
same,"Thrombin time, initial parameter",thrombin time; [7],35 s
same,Solubility in 0.9% isotonic solution of sodium chloride,[3]; 0.9% sodium chloride,readily soluble
same,Solubility in 95% ethanol,[3]; 95% ethanol,substantially insoluble
same,Solubility in chloroform,[3]; chloroform,substantially insoluble
same,Solubility in ether,[3]; ether,substantially insoluble
same,Hygroscopicity,[3]; lyophilized powder,hygroscopic
same,Solubility in water,[3]; water,readily soluble
same,Lysis duration of the euglobulin fraction,[4]; after 2 hours,90 min
same,Lysis duration of the euglobulin fraction,[4]; after 1 day,1 min
same,Lysis duration of the euglobulin fraction,[4]; after 2 days,10 min
same,"Lysis duration of the euglobulin fraction, initial parameter",[4]; [7],70 min
same,LD50,Rabbits,1834 un./kg
same,"Toxicity test result (dead/survived, not defined)",Rabbits; 500 un/kg,0/6
same,"Toxicity test result (dead/survived, not defined)",Rabbits; 1500 un/kg,2/4
same,"Toxicity test result (dead/survived, not defined)",Rabbits; 2000 un/kg,2/4
same,"Toxicity test result (dead/survived, not defined)",Rabbits; 2500 un/kg,6/0
same,Bleeding,blood coagulation,not accompanied by bleeding
same,Changes in the third phase of blood coagulation,blood coagulation,no sharp changes in the third phase of blood coagulation
same,Efficiency of the therapy (lysis of thrombus),[5],full lysis
same,"Toxicity test result (dead/survived, not defined)",Dogs; 500 un/kg,0/3
same,"Toxicity test result (dead/survived, not defined)",Dogs; 1000 un/kg,0/3
same,"Toxicity test result (dead/survived, not defined)",Dogs; 1500 un/kg,0/1
B2,Solubility in water and aqueous solutions,[6],not soluble
